# Results reported in paper PMC3306407, “A Single-Stranded DNA Aptamer That Selectively Binds to Staphylococcus aureus Enterotoxin B”.
# B1: APTSEB1 (ssDNA)
# DNA: GGTATTGAGGGTCGCATCCACTGGTCGTTGTTGTCTGTTGTCTGTTATGTTGTTTCGTGATGGCTCTAACTCTCCTCT
# Key:
# [1] = target: staphylococcal enterotoxin B (SEB) (Staphylococcus aureus, UniProt P01552 28-266)
# [2] = target: staphylococcal enterotoxin C3 (SEC3) (Staphylococcus aureus, UniProt P0A0L5 28-266)
# [3] = target: staphylococcal enterotoxin C2 (SEC2) (Staphylococcus aureus, UniProt P34071 28-266)
# [4] = target: staphylococcal enterotoxin C1 (SEC1) (Staphylococcus aureus, UniProt P01553 28-266)
binder,measurement,setting,value
B1,binding result,[1],binds
same,binding result,[2],no binding
same,binding result,[3],no binding
same,binding result,[4],no binding
